Measured values published in article PMC3160652 (The EMBO Journal, 2011).

Target: T1, GST–Ubp3 (UBP3 cloned into pGEX4T, PEN253) (S. cerevisiae, UniProt Q01477 1-912)
T1 sequence (looked up): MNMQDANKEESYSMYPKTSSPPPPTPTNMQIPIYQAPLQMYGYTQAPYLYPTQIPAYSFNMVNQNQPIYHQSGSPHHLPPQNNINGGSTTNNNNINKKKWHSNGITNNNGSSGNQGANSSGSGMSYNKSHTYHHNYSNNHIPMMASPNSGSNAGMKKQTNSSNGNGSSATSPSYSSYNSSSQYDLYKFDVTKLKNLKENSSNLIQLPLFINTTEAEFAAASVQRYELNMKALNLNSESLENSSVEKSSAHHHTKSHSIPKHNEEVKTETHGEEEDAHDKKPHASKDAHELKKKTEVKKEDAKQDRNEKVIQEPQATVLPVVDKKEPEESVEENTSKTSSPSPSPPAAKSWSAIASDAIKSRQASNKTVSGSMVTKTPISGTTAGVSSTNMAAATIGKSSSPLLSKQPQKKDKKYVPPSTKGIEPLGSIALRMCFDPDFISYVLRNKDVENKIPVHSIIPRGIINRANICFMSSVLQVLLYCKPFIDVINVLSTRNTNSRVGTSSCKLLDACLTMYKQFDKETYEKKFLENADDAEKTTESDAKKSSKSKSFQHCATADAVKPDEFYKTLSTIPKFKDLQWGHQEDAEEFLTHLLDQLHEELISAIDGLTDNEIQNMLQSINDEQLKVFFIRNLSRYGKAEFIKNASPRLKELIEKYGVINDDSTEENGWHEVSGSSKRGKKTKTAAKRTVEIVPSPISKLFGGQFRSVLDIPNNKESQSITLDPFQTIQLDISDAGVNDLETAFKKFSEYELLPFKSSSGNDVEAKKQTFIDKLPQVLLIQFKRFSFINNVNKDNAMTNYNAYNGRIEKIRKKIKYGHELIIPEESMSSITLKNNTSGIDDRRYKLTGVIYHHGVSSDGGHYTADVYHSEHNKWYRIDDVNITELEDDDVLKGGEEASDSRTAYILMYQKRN
Assay: pull-down

B1: His-tagged Hog1 (enzyme, S. cerevisiae, UniProt P32485 1-435, looked up)
chain: MTTNEEFIRTQIFGTVFEITNRYNDLNPVGMGAFGLVCSATDTLTSQPVAIKKIMKPFSTAVLAKRTYRELKLLKHLRHENLICLQDIFLSPLEDIYFVTELQGTDLHRLLQTRPLEKQFVQYFLYQILRGLKYVHSAGVIHRDLKPSNILINENCDLKICDFGLARIQDPQMTGYVSTRYYRAPEIMLTWQKYDVEVDIWSAGCIFAEMIEGKPLFPGKDHVHQFSIITDLLGSPPKDVINTICSENTLKFVTSLPHRDPIPFSERFKTVEPDAVDLLEKMLVFDPKKRITAADALAHPYSAPYHDPTDEPVADAKFDWHFNDADLPVDTWRVMMYSEILDFHKIGGSDGQIDISATFDDQVAAATAAAAQAQAQAQAQVQLNMAAHSHNGAGTTGNDHSDIAGGNKVSDHVAANDTITDYGNQAIQYANEFQQ
  binding result: binds
